Assay results: PMC10718521, “Complexity of αvβ6-integrin targeting RGD peptide trimers: emergence of non-specific binding by synergistic interaction” (RSC Medicinal Chemistry, 2023)

Experiments:
[1] = type: physicochemical; details: pH 7.4
Protocol: The trimers were labeled with ^68Ga for biodistribution and small-animal PET experiments employing a fully automated method.[39] Non-radioactive reference compounds were obtained by complexation of equimolar amounts of ^natGa^3+ in form of the aq. chloride solution.[39] The polarity of the ^68Ga or ^natGa^3+ containing conjugates, respectively, was assessed by two established proxies, namely the n-octanol/water distribution coefficient at pH 7.4, log D7.4, and the retention time tR on a reverse-phase HPLC column with a suitable liquid-phase gradient (10–50% acetonitrile in water with 0.1% trifluoroacetic acid) (see Fig. 2a). […] A measurable decrease of the log D7.4 was only observed for ≥3 Tyr. […]
(§1) Unless otherwise noted, the materials and the instrumentation used (analytical and preparative HPLC, ESI-MS, gamma counter, centrifuge), and the experimental procedures (^68Ga radiolabeling and radio-TLC for quality control, determination of log D7.4, cultivation of H2009 human lung adenocarcinoma cells, generation of tumor xenografts in CB17 SCID mice, small-animal PET, and biodistribution) were described before.[19] All animal experiments have been carried out according to applicable law and institutional guidelines of Technical University of Munich, and were approved by the responsible local authority (Regierung von Oberbayern). The H2009 cells were regularly authenticated and tested for mycoplasma contamination. The affinities of the pentynoic amide functionalized peptides were determined employing a well-established ELISA protocol on immobilized integrins.[36] TRAP-triazide,[38]FF (previously termed AvB6),[32] and YY (also referred to as Tyr2-alkyne)[33] were synthesized as described previously. RP-HPLC for assessment of compound polarity was done on a 150 × 4.6 mm ReproSil-Pur 120 C18-AQ 5 μm column, with a flow of 0.75 mL min^−1 and a gradient of 10–50% MeCN in water, both containing 0.1% trifluoroacetic acid, within 15 min. The required ^natGa-complexes of the peptide trimers were synthesized by reaction with equimolar amounts of aq. GaCl3 as described.[19]

in vivo = assay: in vivo; parameters: species or system mice; details: CB17 SCID, mouse, total radioactivity
From the text: The biodistribution of all ^68Ga-labeled peptide trimers was investigated in severe combined immunodeficiency (SCID) mice bearing subcutaneous xenografts of the αvβ6-integrin expressing human lung adenocarcinoma cell line H2009 on their right shoulders.
as §1

[2] = tumor/organ ratio Heart (myocard)
[3] = tumor/organ ratio Large intestine (empty)
[4] = tumor/organ ratio Small intestine (empty)
[5] = tumor/organ ratio Stomach (empty)

| Structure (SMILES) | logD [1] | tissue uptake at 1.5 h (in vivo; Adrenals uptake) [%ID/g] | tissue uptake at 1.5 h (in vivo; Blood uptake) [%ID/g] | tissue uptake at 1.5 h (in vivo; Heart (myocard) uptake) [%ID/g] | tissue uptake at 1.5 h (in vivo; Kidneys uptake) [%ID/g] | tissue uptake at 1.5 h (in vivo; Large intestine (empty) uptake) [%ID/g] | tissue uptake at 1.5 h (in vivo; Liver uptake) [%ID/g] | tissue uptake at 1.5 h (in vivo; Lung uptake) [%ID/g] | tissue uptake at 1.5 h (in vivo; Muscle uptake) [%ID/g] | tissue uptake at 1.5 h (in vivo; Pancreas uptake) [%ID/g] | tissue uptake at 1.5 h (in vivo; Small intestine (empty) uptake) [%ID/g] | tissue uptake at 1.5 h (in vivo; Spleen uptake) [%ID/g] | tissue uptake at 1.5 h (in vivo; Stomach (empty) uptake) [%ID/g] | tissue uptake at 1.5 h (in vivo; Tumor H2009 uptake) [%ID/g] | tissue to tissue ratio at 1.5 h (in vivo; tumor/organ ratio Adrenals) | tissue to tissue ratio at 1.5 h (in vivo; tumor/organ ratio Blood) | tissue to tissue ratio at 1.5 h (in vivo; [2]) | tissue to tissue ratio at 1.5 h (in vivo; tumor/organ ratio Kidneys) | tissue to tissue ratio at 1.5 h (in vivo; [3]) | tissue to tissue ratio at 1.5 h (in vivo; tumor/organ ratio Liver) | other results |
| --- | --- | --- | --- | --- | --- | --- | --- | --- | --- | --- | --- | --- | --- | --- | --- | --- | --- | --- | --- | --- | --- |
| CC(C)C[C@@H]1NC(=O)[C@H](CC(=O)O)NC(=O)CNC(=O)[C@H](CCCNC(=N)N)NC(=O)[C@H](Cc2ccccc2)NC(=O)[C@H](CCCCNC(=O)CCc2cn(CCCNC(=O)CCP(=O)(O)CN3CCN(CP(=O)(O)CCC(=O)NCCCn4cc(CCC(=O)NCCCC[C@H]5C(=O)N[C@@H](Cc6ccc(O)cc6)C(=O)N[C@@H](CCCNC(=N)N)C(=O)NCC(=O)N[C@@H](CC(=O)O)C(=O)N[C@@H](CC(C)C)C(=O)N[C@@H](C)C(=O)N[C@@H](Cc6ccccc6)C(=O)N6CCC[C@@H]6C(=O)N5C)nn4)CCN(CP(=O)(O)CCC(=O)NCCCn4cc(CCC(=O)NCCCC[C@H]5C(=O)N[C@@H](Cc6ccc(O)cc6)C(=O)N[C@@H](CCCNC(=N)N)C(=O)NCC(=O)N[C@@H](CC(=O)O)C(=O)N[C@@H](CC(C)C)C(=O)N[C@@H](C)C(=O)N[C@@H](Cc6ccccc6)C(=O)N6CCC[C@@H]6C(=O)N5C)nn4)CC3)nn2)N(C)C(=O)[C@H]2CCCN2C(=O)[C@H](Cc2ccccc2)NC(=O)[C@H](C)NC1=O (68Ga complex, metal not drawn) [Y2Y] | -1.5 ± 0.1 | 1.07 ± 0.27 | 1.91 ± 0.49 | 0.85 ± 0.16 | 80.8 ± 5.12 | 3.89 ± 0.73 | 2.59 ± 0.35 | 7.02 ± 1.34 | 0.63 ± 0.12 | 0.44 ± 0.07 | 2.23 ± 0.41 | 4.36 ± 0.79 | 6.55 ± 1.48 | 7.93 ± 0.28 | 7.8 ± 1.7 | 4.4 ± 1.1 | 9.6 ± 1.8 | 0.1 | 2.1 ± 0.4 | 3.1 ± 0.3 | log D7.4 [1]: −1.4 to −1.5; tissue to tissue ratio at 1.5 h (in vivo; tumor/organ ratio Lung): 1.2 ± 0.2; tissue to tissue ratio at 1.5 h (in vivo; tumor/organ ratio Muscle): 13 ± 2.5; tissue to tissue ratio at 1.5 h (in vivo; tumor/organ ratio Pancreas): 18.2 ± 2.3; tissue to tissue ratio at 1.5 h (in vivo; [4]): 3.6 ± 0.7; tissue to tissue ratio at 1.5 h (in vivo; tumor/organ ratio Spleen): 1.9 ± 0.4; tissue to tissue ratio at 1.5 h (in vivo; [5]): 1.3 ± 0.3 |
| CC(C)C[C@@H]1NC(=O)[C@H](CC(=O)O)NC(=O)CNC(=O)[C@H](CCCNC(=N)N)NC(=O)[C@H](Cc2ccccc2)NC(=O)[C@H](CCCCNC(=O)CCc2cn(CCCNC(=O)CCP(=O)(O)CN3CCN(CP(=O)(O)CCC(=O)NCCCn4cc(CCC(=O)NCCCC[C@H]5C(=O)N[C@@H](Cc6ccccc6)C(=O)N[C@@H](CCCNC(=N)N)C(=O)NCC(=O)N[C@@H](CC(=O)O)C(=O)N[C@@H](CC(C)C)C(=O)N[C@@H](C)C(=O)N[C@@H](Cc6ccccc6)C(=O)N6CCC[C@@H]6C(=O)N5C)nn4)CCN(CP(=O)(O)CCC(=O)NCCCn4cc(CCC(=O)NCCCC[C@H]5C(=O)N[C@@H](Cc6ccc(O)cc6)C(=O)N[C@@H](CCCNC(=N)N)C(=O)NCC(=O)N[C@@H](CC(=O)O)C(=O)N[C@@H](CC(C)C)C(=O)N[C@@H](C)C(=O)N[C@@H](Cc6ccc(O)cc6)C(=O)N6CCC[C@@H]6C(=O)N5C)nn4)CC3)nn2)N(C)C(=O)[C@H]2CCCN2C(=O)[C@H](Cc2ccccc2)NC(=O)[C@H](C)NC1=O (68Ga complex, metal not drawn) [Y2] | -1.5 ± 0.2 | 1.5 ± 1.28 | 2.26 ± 0.26 | 1.08 ± 0.13 | 92 ± 12.2 | 3.81 ± 0.53 | 3.37 ± 0.68 | 4.8 ± 0.5 | 0.72 ± 0.15 | 0.65 ± 0.12 | 2.55 ± 0.27 | 2.51 ± 0.33 | 7.17 ± 0.58 | 7.95 ± 1.02 | 8.8 ± 6.2 | 3.5 ± 0.5 | 7.4 ± 0.6 | 0.1 | 2.1 ± 0.2 | 2.4 ± 0.4 | log D7.4 [1]: −1.4 to −1.5; tissue to tissue ratio at 1.5 h (in vivo; tumor/organ ratio Lung): 1.7 ± 0.2; tissue to tissue ratio at 1.5 h (in vivo; tumor/organ ratio Muscle): 11.4 ± 2.4; tissue to tissue ratio at 1.5 h (in vivo; tumor/organ ratio Pancreas): 12.7 ± 2.9; tissue to tissue ratio at 1.5 h (in vivo; [4]): 3.1 ± 0.5; tissue to tissue ratio at 1.5 h (in vivo; tumor/organ ratio Spleen): 3.2 ± 0.7; tissue to tissue ratio at 1.5 h (in vivo; [5]): 1.1 ± 0.1 |
| CC(C)C[C@@H]1NC(=O)[C@H](CC(=O)O)NC(=O)CNC(=O)[C@H](CCCNC(=N)N)NC(=O)[C@H](Cc2ccccc2)NC(=O)[C@H](CCCCNC(=O)CCc2cn(CCCNC(=O)CCP(=O)(O)CN3CCN(CP(=O)(O)CCC(=O)NCCCn4cc(CCC(=O)NCCCC[C@H]5C(=O)N[C@@H](Cc6ccccc6)C(=O)N[C@@H](CCCNC(=N)N)C(=O)NCC(=O)N[C@@H](CC(=O)O)C(=O)N[C@@H](CC(C)C)C(=O)N[C@@H](C)C(=O)N[C@@H](Cc6ccc(O)cc6)C(=O)N6CCC[C@@H]6C(=O)N5C)nn4)CCN(CP(=O)(O)CCC(=O)NCCCn4cc(CCC(=O)NCCCC[C@H]5C(=O)N[C@@H](Cc6ccccc6)C(=O)N[C@@H](CCCNC(=N)N)C(=O)NCC(=O)N[C@@H](CC(=O)O)C(=O)N[C@@H](CC(C)C)C(=O)N[C@@H](C)C(=O)N[C@@H](Cc6ccc(O)cc6)C(=O)N6CCC[C@@H]6C(=O)N5C)nn4)CC3)nn2)N(C)C(=O)[C@H]2CCCN2C(=O)[C@H](Cc2ccc(O)cc2)NC(=O)[C@H](C)NC1=O (68Ga complex, metal not drawn) [Y3F] | -1.8 ± 0.1 | 0.77 ± 0.42 | 0.96 ± 0.3 | 0.62 ± 0.15 | 71.1 ± 15 | 5.15 ± 2.63 | 0.95 ± 0.22 | 4.83 ± 1.54 | 0.66 ± 0.25 | 0.34 ± 0.11 | 2.6 ± 0.9 | 2.38 ± 0.31 | 5.64 ± 1.94 | 6.69 ± 1.21 | 10.3 ± 3.8 | 7.2 ± 1.1 | 10.9 ± 0.8 | 0.1 | 1.6 ± 0.7 | 7.1 ± 0.7 | tissue to tissue ratio at 1.5 h (in vivo; tumor/organ ratio Lung): 1.5 ± 0.3; tissue to tissue ratio at 1.5 h (in vivo; tumor/organ ratio Muscle): 10.9 ± 3; tissue to tissue ratio at 1.5 h (in vivo; tumor/organ ratio Pancreas): 20.4 ± 3.1; tissue to tissue ratio at 1.5 h (in vivo; [4]): 2.7 ± 0.5; tissue to tissue ratio at 1.5 h (in vivo; tumor/organ ratio Spleen): 2.8 ± 0.4; tissue to tissue ratio at 1.5 h (in vivo; [5]): 1.3 ± 0.3 |
